Results as given in patent US20010010919A1 (published 2001).

Target: T1, orphanin FQ receptor (rat, UniProt P35370 1-367)
T1 chain: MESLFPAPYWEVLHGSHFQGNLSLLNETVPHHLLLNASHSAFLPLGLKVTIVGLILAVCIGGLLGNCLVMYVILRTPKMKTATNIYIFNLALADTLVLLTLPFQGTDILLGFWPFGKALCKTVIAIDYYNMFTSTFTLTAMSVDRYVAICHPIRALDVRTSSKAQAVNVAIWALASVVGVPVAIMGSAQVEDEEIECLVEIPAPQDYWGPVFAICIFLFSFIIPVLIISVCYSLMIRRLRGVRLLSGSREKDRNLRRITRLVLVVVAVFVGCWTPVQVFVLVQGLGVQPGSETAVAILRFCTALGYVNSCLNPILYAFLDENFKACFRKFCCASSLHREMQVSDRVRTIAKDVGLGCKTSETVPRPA
Experiment: cell-based or functional assay

FGGFTGARKSARKYANQ [Y14-orphanin FQ]
EC50, cAMP inhibition assay: 1 nM
